Source: PMC4148589

Target: CaV1.1 chimera containing the I–II loop of the CaV2.1 α1A subunit (pc-α1SI–IIA)
Assay: FRAP

Chain of skeletal muscle β1a subunit, GFP-tagged (pcDNA3-β1a-GFP) (P19517 whole entry): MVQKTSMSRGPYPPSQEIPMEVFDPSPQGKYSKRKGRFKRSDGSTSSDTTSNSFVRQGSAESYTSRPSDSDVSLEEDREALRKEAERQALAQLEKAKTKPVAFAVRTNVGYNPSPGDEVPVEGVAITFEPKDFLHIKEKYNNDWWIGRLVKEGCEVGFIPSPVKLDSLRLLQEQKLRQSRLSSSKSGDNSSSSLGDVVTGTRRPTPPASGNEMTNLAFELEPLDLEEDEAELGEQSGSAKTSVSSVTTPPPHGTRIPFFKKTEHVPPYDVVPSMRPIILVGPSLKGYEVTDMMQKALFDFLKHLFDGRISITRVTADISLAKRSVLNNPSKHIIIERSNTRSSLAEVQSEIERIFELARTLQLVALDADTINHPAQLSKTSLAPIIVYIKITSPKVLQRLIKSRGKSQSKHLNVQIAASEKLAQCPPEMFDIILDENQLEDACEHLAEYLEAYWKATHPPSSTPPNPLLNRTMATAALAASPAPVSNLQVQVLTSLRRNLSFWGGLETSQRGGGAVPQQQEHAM

skeletal muscle β1a subunit, GFP-tagged (pcDNA3-β1a-GFP) (from UniProt P19517 1-524) (natural protein)
R75 (fractional fluorescence recovery 75 s after bleaching): 20.5%
